Target: T1, PAP1 R2R3-MYB domain (UniProt Q9FE25 1-178)
T1 sequence: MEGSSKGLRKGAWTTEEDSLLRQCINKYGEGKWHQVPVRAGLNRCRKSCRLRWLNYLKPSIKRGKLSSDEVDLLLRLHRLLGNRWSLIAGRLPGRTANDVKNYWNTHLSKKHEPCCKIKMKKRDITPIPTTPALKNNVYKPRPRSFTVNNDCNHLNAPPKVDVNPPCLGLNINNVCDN
Assay: EMSA

B1: NtPMT2 MRE-like probe (dsDNA)
DNA 1: CCAACAACCGCGCCAACAACCGCGCCAACAACCGCG
DNA 2: CGCGGTTGTTGGCGCGGTTGTTGGCGCGGTTGTTGG
binding result: no binding

— paper PMC9039656
